From article PMC8041770
Each block holds one substance with its values, some of them ahead of it.

Assays:
[1] = molecular target: yeast-displayed human LIF (hLIF, Ser23 to Phe203) (human) (UniProt P15018); experiment: not stated; Supplementary Fig. 7b, not shown; told only in the discussion
[2] = molecular target: yeast-displayed mouse LIFR (mouse) (UniProt P42703); experiment: flow cytometry on cells; receptor displayed on yeast, soluble cytokine titrated in PBS with 1 mg/ml BSA; bound cytokine detected by fluorescent antibodies; apparent Kd by non-linear regression
yeast-displayed mouse LIFR (mouse), sequence (P42703 44-1092): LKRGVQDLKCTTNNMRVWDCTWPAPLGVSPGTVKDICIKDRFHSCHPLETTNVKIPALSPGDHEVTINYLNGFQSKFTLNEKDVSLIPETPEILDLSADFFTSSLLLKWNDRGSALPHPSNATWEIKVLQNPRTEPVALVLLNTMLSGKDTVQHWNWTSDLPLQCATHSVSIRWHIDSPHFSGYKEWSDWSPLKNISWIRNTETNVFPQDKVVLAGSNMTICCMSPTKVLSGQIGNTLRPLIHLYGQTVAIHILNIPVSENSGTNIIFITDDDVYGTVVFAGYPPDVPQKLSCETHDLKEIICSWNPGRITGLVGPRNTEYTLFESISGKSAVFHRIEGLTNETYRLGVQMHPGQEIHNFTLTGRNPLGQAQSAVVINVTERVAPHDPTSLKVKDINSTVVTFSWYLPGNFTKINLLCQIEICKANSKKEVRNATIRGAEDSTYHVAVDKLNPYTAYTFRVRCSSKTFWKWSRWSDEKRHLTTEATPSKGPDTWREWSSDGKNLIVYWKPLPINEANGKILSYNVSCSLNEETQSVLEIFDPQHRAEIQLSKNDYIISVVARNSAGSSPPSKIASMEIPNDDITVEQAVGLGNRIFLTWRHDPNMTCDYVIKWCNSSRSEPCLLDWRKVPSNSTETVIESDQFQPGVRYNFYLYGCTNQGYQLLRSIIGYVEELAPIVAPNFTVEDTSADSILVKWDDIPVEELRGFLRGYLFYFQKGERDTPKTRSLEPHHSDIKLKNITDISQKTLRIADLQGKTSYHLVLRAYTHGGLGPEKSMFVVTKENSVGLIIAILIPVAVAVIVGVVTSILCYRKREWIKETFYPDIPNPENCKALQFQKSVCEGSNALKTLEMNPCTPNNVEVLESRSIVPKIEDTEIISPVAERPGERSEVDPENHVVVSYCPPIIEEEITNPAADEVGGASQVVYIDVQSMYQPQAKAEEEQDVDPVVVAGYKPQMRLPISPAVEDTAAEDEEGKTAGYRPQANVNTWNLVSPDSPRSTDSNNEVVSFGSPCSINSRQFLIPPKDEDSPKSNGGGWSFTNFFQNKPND

[3] = molecular target: recombinant human LIF, histidine-tagged (hLIF-His) (UniProt P15018); experiment: flow cytometry of yeast-displayed LIFR variants; details: read off a plot
[4] = molecular target: yeast-displayed eLIFR CBM I–Ig-like domains ('VPRVVAID') (human); experiment: flow cytometry on cells; LIFR constructs displayed on yeast (EBY100), soluble tagged cytokine (LIF-His and others) in PBS with 1 mg/ml BSA, detected by antibody to the tag; gated on c-myc-positive yeast; apparent affinity by non-linear regression

mLIFR-Fc (mouse LIFR CBM I–Ig-like–CBM II fused to an antibody Fc domain), sequence (P42703 44-529): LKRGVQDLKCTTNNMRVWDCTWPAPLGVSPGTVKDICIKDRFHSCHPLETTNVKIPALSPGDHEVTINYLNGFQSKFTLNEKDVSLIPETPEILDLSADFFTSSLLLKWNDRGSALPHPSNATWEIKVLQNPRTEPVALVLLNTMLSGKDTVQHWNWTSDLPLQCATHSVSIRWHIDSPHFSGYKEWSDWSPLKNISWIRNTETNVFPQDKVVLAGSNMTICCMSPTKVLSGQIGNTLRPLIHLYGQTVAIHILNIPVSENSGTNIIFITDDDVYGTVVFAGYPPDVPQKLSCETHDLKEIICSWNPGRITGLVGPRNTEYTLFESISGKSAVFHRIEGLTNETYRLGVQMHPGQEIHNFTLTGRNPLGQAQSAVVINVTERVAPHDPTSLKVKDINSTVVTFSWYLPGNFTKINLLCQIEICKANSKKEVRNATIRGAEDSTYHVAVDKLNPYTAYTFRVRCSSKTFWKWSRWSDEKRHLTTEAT
yeast-displayed wild-type human LIFR CBM I–Ig-like domains (Gln45 to Gln337), sequence (P42702 45-337, stated change not applied): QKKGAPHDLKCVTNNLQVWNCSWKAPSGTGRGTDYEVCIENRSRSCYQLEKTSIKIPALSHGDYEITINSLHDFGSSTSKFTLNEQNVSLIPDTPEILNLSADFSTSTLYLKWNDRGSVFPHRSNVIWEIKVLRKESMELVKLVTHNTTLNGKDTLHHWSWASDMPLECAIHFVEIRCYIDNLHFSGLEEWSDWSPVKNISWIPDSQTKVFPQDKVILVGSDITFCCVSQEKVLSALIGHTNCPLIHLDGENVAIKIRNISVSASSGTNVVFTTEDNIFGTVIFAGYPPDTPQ

Kd [1]: 1 pM
Substance: mLIFR-Fc (mouse LIFR CBM I–Ig-like–CBM II fused to an antibody Fc domain) (from UniProt P42703 44-529) (Fc fusion)

Kd [2]: 1.1 pM
Substance: recombinant human LIF-His (from UniProt P15018 23-202) (ligand)

ratio to parent [3]: 5.2
Substance: yeast-displayed wild-type human LIFR CBM I–Ig-like domains (Gln45 to Gln337) (from UniProt P42702) PRDSAID

Kd [4]: 40 pM
Substance: recombinant human LIF, histidine-tagged (hLIF-His) (from UniProt P15018 23-202) (ligand)
